Source: patent publication US7115382B1, “Method for detecting IGFBP-4 protease without detecting IGFBP-4 protease/proMBP Complex” (Mayo Foundation for Medical Education and Research, priority 1999, dated 2006)

Assays:
[1] = target: T1, PAPP-A (Homo sapiens, UniProt Q13219); assay: IGFBP-4 proteolysis by PAPP-A purified from pregnancy serum, [125I]IGFBP-4 assay; assay type: biochemical; settings: PAPP-A purified from pregnancy serum 500 ng, EDTA 5 mM, 1,10 phenantholine 5 mM, PMSF 10 mM, TIMP-1 5 μg/ml
T1 construct: a pro-part of 58 residues, and an 1547-residue circulating mature polypeptide; from tissue; host or cells: human term pregnancy serum
Procedure: (§1) PAPP-A Activity. IGFBP-4 proteolysis was assayed by incubating the sample overnight at 37° C. with 2 mM CaC2/50 mM Tris (pH 7.5)/10,000 cpm of [^125I]IGFBP-4 in the absence and presence of 5 nM IGF-II in a total volume of 25 μl. Proteins were separated by reducing 15% SDS/PAGE and visualized by autoradiography. For some experiments, PAPP-A polyclonal antibody or nonspecific rabbit IgG was added to the assay mixture or was used in conjunction with protein G plus protein A-agarose (Oncogene Science) to immunoprecipitate IGFBP-4 protease activity before assay.
IGFBP-4 proteolysis was assayed as described in Example 1, by incubating sample at 37° C. for 6 h with [^125I]IGFBP-4. Reaction products were separated by nonreducing 7.5–15% gradient SDS-PAGE, and visualized by autoradiography.
(§2) For some experiments, protease inhibitors (see Table 2) or PAPP-A polyclonal antibody were added to the assay mixture during the 6 h incubation. In others, PAPP-A antibody or nonspecific rabbit IgG was used in conjunction with Protein G-plus/Protein-A-agarose (Oncogene Science) to immunoprecipitate IGFBP-4 protease activity and the sample supernatants were then used in the protease assay.

[2] = target: T2, rPAPP-A (Homo sapiens, UniProt Q13219); assay: Activity of recombinant PAPP-A against IGFBP-4; assay type: biochemical; settings: in presence of IGF
T2 construct: because the mature rPAPP-A is antigenic, functional, and secreted abundantly into the culture medium; made in house; host or cells: human embryonic kidney 293T cells, pcDNA3.1-PAPP-A; culture supernatant or purified
Procedure: as §1
(§3) Measurement of PAPP-A Proteolytic Activity: IGFBP-4 proteolysis was assayed as described in Example 1. The activity of the PAPP-A/proMBP complex was compared to the activity of rPAPP-A in two parallel time course experiments scaled up to larger reaction volumes: Equal amounts of sample A (pool of pregnancy serum diluted to 7 μg/ml of PAPP-A/proMBP as determined by ELISA calibrated with purified PAPP-A/proMBP) and sample B (as sample A, but rPAPP-A supernatant added to 7 μg/ml as determined by ELISA calibrated with purified rPAPP-A) were incubated with [^125I]IGFBP-4 in the presence of 5 nM IGF-II. […] The experiment with sample A was also carried out in the presence of polyclonal anti(PAPP-A/proMBP). A similar time course experiment was performed for comparison of PAPP-A activity in selected column fractions.

[3] = target: T3, IGFBP-4 protease activity in follicular fluid (Homo sapiens, UniProt Q13219); assay: IGFBP-4 proteolysis in IVF follicular fluid, cell-free [125I]IGFBP-4 assay; assay type: biochemical; settings: for Effect on IGFBP-4 protease activity in IVF follicular fluid: added to the assay during 6 h incubation; for % Inhibition of IGFBP-4 proteolysis, FF: follicular fluid 10 μl, [125I]IGFBP-4, 6 h 37°C, EDTA 5 mM, 1,10 phenantholine 5 mM, PMSF 10 mM, Pefabloc 1 mM, TIMP-1 5 μg/ml
T3 construct: Follicular fluid was obtained at the time of follicle aspiration for in vitro fertilization (IVF) procedures; from tissue; host or cells: IVF follicular fluid
Procedure: PAPP-A Activity. […] For some experiments, PAPP-A polyclonal antibody or nonspecific rabbit IgG was added to the assay mixture or was used in conjunction with protein G plus protein A-agarose (Oncogene Science) to immunoprecipitate IGFBP-4 protease activity before assay.
as §2

[4] = target: insulin-like growth factor binding protein-4 ([125I]IGFBP-4) (human) (UniProt P22692); assay: cell-based or functional assay
[5] = tested on: IGFBP-4; assay: IGFBP-4 cleavage by PAPP-A forms (rPAPP-A, PAPP-A/proMBP, column fractions); assay type: biochemical, human; settings: for Amount required to obtain the same degree of IGFBP-4 cleavage: initial experiment, purified proteins; for IGF-dependent IGFBP-4 protease activity: with and without IGF-II
Procedure: as §1, §3

[6] = target: PAPP-A (IGFBP-4 protease) in IVF follicular fluid (human) (UniProt Q13219); assay: cell-based or functional assay
[7] = target: PAPP-A/proMBP complex purified from pregnancy serum (human) (UniProt Q13219); assay: cell-based or functional assay
[8] = target: T4, insulin-like growth factor binding protein-4 ([125I]IGFBP-4) (UniProt P22692)
T4 sequence: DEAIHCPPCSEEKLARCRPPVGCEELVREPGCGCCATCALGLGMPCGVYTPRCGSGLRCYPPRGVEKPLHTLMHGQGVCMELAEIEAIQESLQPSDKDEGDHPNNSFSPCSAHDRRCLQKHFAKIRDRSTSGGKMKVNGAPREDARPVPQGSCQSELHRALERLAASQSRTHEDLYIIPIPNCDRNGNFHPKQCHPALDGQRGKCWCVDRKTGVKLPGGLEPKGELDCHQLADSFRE

[9] = tested on: human granulosa cells; settings: Iwashita et al. 1996; cited from earlier work
[10] = target: PAPP-A present in pregnancy serum (human, UniProt Q13219 82-1627); assay: cell-based or functional assay
[11] = target: T5, insulin-like growth factor binding protein-4 ([125I]IGFBP-4), P22692
T5 chain: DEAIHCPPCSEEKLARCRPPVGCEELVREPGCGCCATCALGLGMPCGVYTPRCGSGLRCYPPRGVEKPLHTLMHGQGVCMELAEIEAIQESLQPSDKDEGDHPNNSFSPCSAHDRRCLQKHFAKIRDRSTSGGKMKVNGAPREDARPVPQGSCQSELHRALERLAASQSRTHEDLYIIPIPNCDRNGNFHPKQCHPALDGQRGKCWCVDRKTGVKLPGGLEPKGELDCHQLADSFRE

T2 sequence (Q13219 with tags, fused parts or gaps): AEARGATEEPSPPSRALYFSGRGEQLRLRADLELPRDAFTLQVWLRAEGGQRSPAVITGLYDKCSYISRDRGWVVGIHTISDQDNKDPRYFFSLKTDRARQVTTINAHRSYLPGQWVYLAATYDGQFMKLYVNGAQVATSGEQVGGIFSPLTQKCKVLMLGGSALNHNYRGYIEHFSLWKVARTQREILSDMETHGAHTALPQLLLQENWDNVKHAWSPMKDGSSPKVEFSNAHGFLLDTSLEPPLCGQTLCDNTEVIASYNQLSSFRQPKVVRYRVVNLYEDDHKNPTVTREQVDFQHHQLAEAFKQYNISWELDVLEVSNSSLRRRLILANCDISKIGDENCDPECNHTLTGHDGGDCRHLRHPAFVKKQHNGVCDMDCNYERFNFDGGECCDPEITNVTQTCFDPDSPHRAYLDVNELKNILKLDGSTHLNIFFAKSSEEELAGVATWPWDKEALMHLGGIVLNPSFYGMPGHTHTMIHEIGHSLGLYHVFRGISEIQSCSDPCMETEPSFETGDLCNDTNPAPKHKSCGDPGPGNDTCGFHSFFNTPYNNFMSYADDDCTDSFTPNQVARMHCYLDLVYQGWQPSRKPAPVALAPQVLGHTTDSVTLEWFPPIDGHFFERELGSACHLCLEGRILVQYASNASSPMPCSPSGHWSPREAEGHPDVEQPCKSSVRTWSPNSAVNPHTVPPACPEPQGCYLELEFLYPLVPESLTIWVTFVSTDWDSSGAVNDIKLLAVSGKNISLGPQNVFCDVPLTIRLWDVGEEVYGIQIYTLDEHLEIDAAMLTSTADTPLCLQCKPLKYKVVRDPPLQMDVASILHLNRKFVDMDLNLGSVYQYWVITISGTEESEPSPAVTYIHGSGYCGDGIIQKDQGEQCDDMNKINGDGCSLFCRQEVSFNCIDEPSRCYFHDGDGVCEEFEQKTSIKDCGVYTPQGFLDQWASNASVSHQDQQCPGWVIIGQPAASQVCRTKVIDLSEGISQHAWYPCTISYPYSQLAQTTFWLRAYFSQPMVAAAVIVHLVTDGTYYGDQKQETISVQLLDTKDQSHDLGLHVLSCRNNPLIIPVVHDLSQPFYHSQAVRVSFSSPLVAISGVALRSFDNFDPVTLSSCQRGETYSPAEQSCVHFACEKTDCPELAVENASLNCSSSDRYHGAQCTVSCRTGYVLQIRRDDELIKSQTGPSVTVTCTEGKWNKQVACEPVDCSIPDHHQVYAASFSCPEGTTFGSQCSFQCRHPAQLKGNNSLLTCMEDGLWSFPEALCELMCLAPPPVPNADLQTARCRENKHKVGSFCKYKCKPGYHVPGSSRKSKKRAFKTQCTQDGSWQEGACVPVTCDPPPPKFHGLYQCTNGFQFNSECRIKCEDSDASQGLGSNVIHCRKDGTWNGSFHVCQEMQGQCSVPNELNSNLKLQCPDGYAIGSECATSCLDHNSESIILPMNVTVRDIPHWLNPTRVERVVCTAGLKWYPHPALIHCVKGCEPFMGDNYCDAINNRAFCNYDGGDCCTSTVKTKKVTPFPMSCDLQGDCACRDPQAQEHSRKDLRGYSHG

Molecule: c1cnc2c(c1)ccc1cccnc12 [1,10 phenantholine, 1,10-phenanthroline]
- % Inhibition of IGFBP-4 proteolysis, PAPP-A [1]: 100%
- Inhibition of rPAPP-A activity against IGFBP-4 [2]: inhibited
- Effect on IGFBP-4 protease activity in IVF follicular fluid [3]: completely suppressed
- % Inhibition of IGFBP-4 proteolysis, FF [3]: 100%

Molecule: O=C(O)CN(CCN(CC(=O)O)CC(=O)O)CC(=O)O [EDTA]
- Inhibition of rPAPP-A activity against IGFBP-4 [2]: inhibited
- Effect on IGFBP-4 protease activity in IVF follicular fluid [3]: completely suppressed

Molecule: O=S(=O)(F)Cc1ccccc1 [PMSF]
- % Inhibition of IGFBP-4 proteolysis, PAPP-A [1]: 20%
- Effect on IGFBP-4 protease activity in IVF follicular fluid [3]: not
- % Inhibition of IGFBP-4 proteolysis, FF [3]: 0%

Molecule: Cl.NCCc1ccc(S(=O)(=O)F)cc1 [Pefabloc]
- Effect on IGFBP-4 protease activity in IVF follicular fluid [3]: not
- % Inhibition of IGFBP-4 proteolysis, FF [3]: 15%

Molecule: PAPP-A/proMBP complex purified from pregnancy serum (from UniProt Q13219 82-1627; P13727 17-222)
- amount required for the same degree of IGFBP-4 cleavage [4]: 50 ng

Molecule: PAPP-A/proMBP: approximately 500 kDa disulfide-linked 2:2 complex of PAPP-A and proMBP purified from pregnancy serum
- Amount required to obtain the same degree of IGFBP-4 cleavage [5]: approximately 50 ng
- IGF-dependent IGFBP-4 protease activity [5]: exhibited IGF-dependent IGFBP-4 protease activity

Molecule: TIMP-1 (from UniProt P01033 24-207)
- % Inhibition of IGFBP-4 proteolysis (TIMP-1, 5 ug/ml) [6]: 0%
- % Inhibition of IGFBP-4 proteolysis (TIMP-1, 5 ug/ml) [7]: 0%

Molecule: TIMP-1: a broad spectrum inhibitor of matrix metalloproteinases
- % Inhibition of IGFBP-4 proteolysis, PAPP-A [1]: 0%
- Inhibition of rPAPP-A activity against IGFBP-4 [2]: not
- Effect on IGFBP-4 protease activity in IVF follicular fluid [3]: had no effect
- % Inhibition of IGFBP-4 proteolysis, FF [3]: 0%

Molecule: rPAPP-A: recombinant PAPP-A expressed in mammalian cells, secreted as a homodimer of about 400 kDa devoid of proMBP
- Amount required to obtain the same degree of IGFBP-4 cleavage [5]: 0.1 ng
- Difference in specific activity, rPAPP-A versus PAPP-A in pregnancy serum ([5]; time course, 7 μg/ml each, 5 nM IGF-II): about 100 fold
- IGF-dependent IGFBP-4 protease activity [5]: cleaves IGFBP-4 in an IGF dependent manner

Molecule: recombinant PAPP-A (rPAPP-A)
- amount required for the same degree of IGFBP-4 cleavage [8]: approximately 50 ng of PAPP-A/proMBP complex purified from pregnancy serum was required to obtain the same degree of IGFBP-4 cleavage as 0.1 ng of rPAPP-A
- cleavage of IGFBP-4 [8]: IGFBP-4 was cleaved in the presence, but not in the absence of IGF

Molecule: uncomplexed PAPP-A: PAPP-A antigen eluting around fraction 24 of pregnancy serum, uncomplexed PAPP-A dimer
- Specific activity against IGFBP-4, early versus late eluting Mono Q peak of pregnancy serum ([5]; fraction 24 versus fraction 43): greater than 25 fold

B1: intact IGFBP4: intact insulin-like growth factor binding protein 4 (protein)
chain: DEAIHCPPCSEEKLARCRPPVGCEELVREPGCGCCATCALGLGMPCGVYTPRCGSGLRCYPPRGVEKPLHTLMHGQGVCMELAEIEAIQESLQPSDKDEGDHPNNSFSPCSAHDRRCLQKHFAKIRDRSTSGGKMKVNGAPREDARPVPQGSCQSELHRALERLAASQSRTHEDLYIIPIPNCDRNGNFHPKQCHPALDGQRGKCWCVDRKTGVKLPGGLEPKGELDCHQLADSFRE
- Effect on IGF-stimulated estradiol production [9]: inhibited

B2: proform of eosinophil major basic protein (proMBP) (other, human, UniProt P13727 17-222, looked up)
chain: LHLRSETSTFETPLGAKTLPEDEETPEQEMEETPCRELEEEEEWGSGSEDASKKDGAVESISVPDMVDKNLTCPEEEDTVKVVGIPGCQTCRYLLVRSLQTFSQAWFTCRRCYRGNLVSIHNFNINYRIQCSVSALNQGQVWIGGRITGSGRCRRFQWVDGSRWNFAYWAAHQPWSRGGHCVALCTRGGHWRRAHCLRRLPFICSY
- difference in specific activity between PAPP-A in pregnancy serum and rPAPP-A [10]: ~100 fold
- specific activity against IGFBP-4 of the early (uncomplexed) against the late (PAPP-A/proMBP) Mono Q peak [10]: > 25 fold

B3: PAPP-A (IGFBP-4 protease) in IVF follicular fluid (protein)
chain: EARGATEEPSPPSRALYFSGRGEQLRLRADLELPRDAFTLQVWLRAEGGQRSPAVITGLYDKCSYISRDRGWVVGIHTISDQDNKDPRYFFSLKTDRARQVTTINAHRSYLPGQWVYLAATYDGQFMKLYVNGAQVATSGEQVGGIFSPLTQKCKVLMLGGSALNHNYRGYIEHFSLWKVARTQREILSDMETHGAHTALPQLLLQENWDNVKHAWSPMKDGSSPKVEFSNAHGFLLDTSLEPPLCGQTLCDNTEVIASYNQLSSFRQPKVVRYRVVNLYEDDHKNPTVTREQVDFQHHQLAEAFKQYNISWELDVLEVSNSSLRRRLILANCDISKIGDENCDPECNHTLTGHDGGDCRHLRHPAFVKKQHNGVCDMDCNYERFNFDGGECCDPEITNVTQTCFDPDSPHRAYLDVNELKNILKLDGSTHLNIFFAKSSEEELAGVATWPWDKEALMHLGGIVLNPSFYGMPGHTHTMIHEIGHSLGLYHVFRGISEIQSCSDPCMETEPSFETGDLCNDTNPAPKHKSCGDPGPGNDTCGFHSFFNTPYNNFMSYADDDCTDSFTPNQVARMHCYLDLVYQGWQPSRKPAPVALAPQVLGHTTDSVTLEWFPPIDGHFFERELGSACHLCLEGRILVQYASNASSPMPCSPSGHWSPREAEGHPDVEQPCKSSVRTWSPNSAVNPHTVPPACPEPQGCYLELEFLYPLVPESLTIWVTFVSTDWDSSGAVNDIKLLAVSGKNISLGPQNVFCDVPLTIRLWDVGEEVYGIQIYTLDEHLEIDAAMLTSTADTPLCLQCKPLKYKVVRDPPLQMDVASILHLNRKFVDMDLNLGSVYQYWVITISGTEESEPSPAVTYIHGSGYCGDGIIQKDQGEQCDDMNKINGDGCSLFCRQEVSFNCIDEPSRCYFHDGDGVCEEFEQKTSIKDCGVYTPQGFLDQWASNASVSHQDQQCPGWVIIGQPAASQVCRTKVIDLSEGISQHAWYPCTISYPYSQLAQTTFWLRAYFSQPMVAAAVIVHLVTDGTYYGDQKQETISVQLLDTKDQSHDLGLHVLSCRNNPLIIPVVHDLSQPFYHSQAVRVSFSSPLVAISGVALRSFDNFDPVTLSSCQRGETYSPAEQSCVHFACEKTDCPELAVENASLNCSSSDRYHGAQCTVSCRTGYVLQIRRDDELIKSQTGPSVTVTCTEGKWNKQVACEPVDCSIPDHHQVYAASFSCPEGTTFGSQCSFQCRHPAQLKGNNSLLTCMEDGLWSFPEALCELMCLAPPPVPNADLQTARCRENKHKVGSFCKYKCKPGYHVPGSSRKSKKRAFKTQCTQDGSWQEGACVPVTCDPPPPKFHGLYQCTNGFQFNSECRIKCEDSDASQGLGSNVIHCRKDGTWNGSFHVCQEMQGQCSVPNELNSNLKLQCPDGYAIGSECATSCLDHNSESIILPMNVTVRDIPHWLNPTRVERVVCTAGLKWYPHPALIHCVKGCEPFMGDNYCDAINNRAFCNYDGGDCCTSTVKTKKVTPFPMSCDLQGDCACRDPQAQEHSRKDLRGYSHG
- proteolysis of [125I]IGFBP-4 [11]: Incubation of IVF follicular fluid with [125I]IGFBP-4 resulted in the loss of intact IGFBP-4 ... and the generation of radiolabeled fragments of 18- and 14-kDa
